This note sets out measurements from doi:10.1101/365775 (bioRxiv, 2018).

The data set deals with the molecule itself. Kind of data set: SEC. In general terms: In gel filtration, larger molecules generally elute earlier.

B1: Sec18_(His8) (natural protein, yeast, UniProt P18759 1-758, looked up)
chain: MFKIPGFGKAAANHTPPDMTNMDTRTRHLKVSNCPNNSYALANVAAVSPNDFPNNIYIIIDNLFVFTTRHSNDIPPGTIGFNGNQRTWGGWSLNQDVQAKAFDLFKYSGKQSYLGSIDIDISFRARGKAVSTVFDQDELAKQFVRCYESQIFSPTQYLIMEFQGHFFDLKIRNVQAIDLGDIEPTSAVATGIETKGILTKQTQINFFKGRDGLVNLKSSNSLRPRSNAVIRPDFKFEDLGVGGLDKEFTKIFRRAFASRIFPPSVIEKLGISHVKGLLLYGPPGTGKTLIARKIGTMLNAKEPKIVNGPEILSKYVGSSEENIRNLFKDAEAEYRAKGEESSLHIIIFDELDSVFKQRGSRGDGTGVGDNVVNQLLAKMDGVDQLNNILVIGMTNRKDLIDSALLRPGRFEVQVEIHLPDEKGRLQIFDIQTKKMRENNMMSDDVNLAELAALTKNFSGAEIEGLVKSASSFAINKTVNIGKGATKLNTKDIAKLKVTREDFLNALNDVTPAFGISEEDLKTCVEGGMMLYSERVNSILKNGARYVRQVRESDKSRLVSLLIHGPAGSGKTALAAEIALKSGFPFIRLISPNELSGMSESAKIAYIDNTFRDAYKSPLNILVIDSLETLVDWVPIGPRFSNNILQMLKVALKRKPPQDRRLLIMTTTSAYSVLQQMDILSCFDNEIAVPNMTNLDELNNVMIESNFLDDAGRVKVINELSRSCPNFNVGIKKTLTNIETARHDEDPVNELVELMTQSA
In the case of B1, the stoichiometry N (in general, a count of units in the complex or per binding partner) is 6.
